Here are results for four substances from publication PMC2702006.

Targets include yeast Hsp90 L15A (yeast) (UniProt P02829); yeast Hsp90 L18A (yeast) (UniProt P02829); yeast Hsp90 L18R (yeast) (UniProt P02829).
A further assay concerns the target human Hsp90β (human) (UniProt P08238). The assay is described as follows: cross-linking.

Usually stoichiometry N stands for the number of molecules, sites or subunits per partner or assembly.

Sequence of human Hsp90β, P08238 1-724 (natural protein; other documents disagree on this pair) (P08238 whole entry): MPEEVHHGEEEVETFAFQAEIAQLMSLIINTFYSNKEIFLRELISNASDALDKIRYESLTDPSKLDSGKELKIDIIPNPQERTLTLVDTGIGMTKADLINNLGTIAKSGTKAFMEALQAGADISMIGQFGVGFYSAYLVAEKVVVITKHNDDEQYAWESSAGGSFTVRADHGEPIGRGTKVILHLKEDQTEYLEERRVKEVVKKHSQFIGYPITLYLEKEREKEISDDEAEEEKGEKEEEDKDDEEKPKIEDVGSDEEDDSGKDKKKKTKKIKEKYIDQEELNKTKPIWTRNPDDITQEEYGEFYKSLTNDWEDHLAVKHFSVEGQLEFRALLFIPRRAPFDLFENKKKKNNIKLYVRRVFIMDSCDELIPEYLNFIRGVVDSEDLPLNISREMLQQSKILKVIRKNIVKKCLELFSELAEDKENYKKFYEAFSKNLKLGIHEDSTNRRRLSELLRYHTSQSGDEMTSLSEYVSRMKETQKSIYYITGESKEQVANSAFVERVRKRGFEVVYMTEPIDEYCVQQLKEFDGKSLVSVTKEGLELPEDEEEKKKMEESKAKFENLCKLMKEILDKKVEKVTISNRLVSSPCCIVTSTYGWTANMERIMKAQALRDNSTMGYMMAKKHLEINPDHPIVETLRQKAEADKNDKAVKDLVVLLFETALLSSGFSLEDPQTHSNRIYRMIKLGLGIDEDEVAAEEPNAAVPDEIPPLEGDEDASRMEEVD

“human Hsp90β, P08238 1-724 (natural protein; other documents disagree on this pair)” displayed a stoichiometry N in the assay with human Hsp90β (human) of 2.

“yeast Hsp90 L15A (from UniProt P02829 1-709) (natural protein)” displayed an ATPase activity relative to wild-type yeast Hsp90 with yeast Hsp90 L15A (yeast) of 157. As to “yeast Hsp90 L18A (from UniProt P02829 1-709) (natural protein)”, the ATPase activity relative to wild-type yeast Hsp90 with yeast Hsp90 L18A (yeast) is 103.

In the assay with yeast Hsp90 L18R (yeast), “yeast Hsp90 L18R (from UniProt P02829 1-709) (natural protein)” came in with an ATPase activity relative to wild-type yeast Hsp90 of 42.
